Reference: article PMC5967339, “Rhodopsin-cyclases for photocontrol of cGMP/cAMP and 2.3 Å structure of the adenylyl cyclase domain” (Nature Communications, 2018)

Columns and labels:
[1] = test system: T1, Nc1ncnc2c1ncn2[C@@H]1O[C@H](COP(=O)(O)OP(=O)(O)OP(=O)(O)O)[C@@H](O)[C@H]1O; assay: RP-HPLC of cAMP, initial rates, Hill fit; assay type: biochemical, Catenaria anguillulae; conditions: ATP/Mn2+, pH 7.5, 22 °C
T1 construct: CaAC is a homodimer in the crystal
Source text: RP-HPLC of cAMP, initial rates, Hill fit on CaGC (mutant form: CaAC)

[2] = test system: CaRhGC; assay: RP-HPLC of cGMP, initial rates, Hill fit; assay type: biochemical, Catenaria anguillulae; conditions: GTP/Mn2+, pH 7.5, 22 °C, 522 nm light 0.010 mW mm^-2, dark activity subtracted, detergent
Source text: RP-HPLC of cGMP, initial rates, Hill fit on CaRhGC

[3] = substrate: Nc1nc2c(ncn2[C@@H]2O[C@H](COP(=O)(O)OP(=O)(O)OP(=O)(O)O)[C@@H](O)[C@H]2O)c(=O)[nH]1; assay: RP-HPLC of cGMP, initial rates, Hill fit; assay type: biochemical, Blastocladiella emersonii; conditions: GTP/Mn2+, pH 7.5, 22 °C
Source text: RP-HPLC of cGMP, initial rates, Hill fit on BeGC

[4] = substrate: Nc1nc2c(ncn2[C@@H]2O[C@H](COP(=O)(O)OP(=O)(O)OP(=O)(O)O)[C@@H](O)[C@H]2O)c(=O)[nH]1; assay: RP-HPLC of cGMP, initial rates, Hill fit; assay type: biochemical, Blastocladiella emersonii; conditions: GTP/Mn2+, pH 7.5, 22 °C, 522 nm light 0.010 mW mm^-2, dark activity subtracted, detergent
Source text: RP-HPLC of cGMP, initial rates, Hill fit on BeRhGC

CaGC (mutant form: CaAC) (Catenaria anguillulae PL171; C201D/E132K)
Km [1]: 6.09 ± 1.74 mM
kcat [1]: 1.012 s⁻¹
kcat/Km [1]: 170 M⁻¹ s⁻¹

Nc1nc2c(ncn2[C@@H]2O[C@H](COP(=O)(O)OP(=O)(O)OP(=O)(O)O)[C@@H](O)[C@H]2O)c(=O)[nH]1 [GTP]
Km [2]: 6.1 ± 5.59 mM

B1: BeGC (Blastocladiella emersonii) (protein)
chain: TEAKEYESVTVFFSDITNFTVISSRTSTKDMMATLNKLWLEYDAIAKRWGVYKVETIGDAYLGVTGAPDVVPDHAERACNFAVDIIEMIKSFKTITGESINIRIGLNSGPVTAGVLGDLNPHWCLVGDTVNTASRMESTSKAGHIHISESTYHFIKSKFVTQPLDVMEVKGKGKMQTYWVLGRK
Km [3]: 2.16 ± 0.30 mM
kcat [3]: 0.339 s⁻¹
kcat/Km [3]: 160 M⁻¹ s⁻¹

B2: BeRhGC (Blastocladiella emersonii) (protein)
chain: MKDKDNNLRGACSSCNCPEYCFSPTSTLCDDCKCSVTKHPIVEQPLSRNGSFRSSGASLLPSPSSPNVKITSTVGLRSRKSESQANVRGSMISNSNSGSRSNNSGGAGGGSGGSSSSKGGSALANYQSAMSELWSWNMMLSTPSLKFLTVQFTTWIVLTTVGAIYTLFFHERQAYNRGWADIWYGYGAFGFGLGLSFAYMGFTGARNPEKKALSLCLLGVNFISFMSYIIIMLRLTPTIEGTMANPVEPARYLEWIATCPVLILLISEITQYPHDPYKVIVNDYALCLAGFVGAISAQQPWGDLAHFVSCLCFSYVVYSLWSCFTGAIDGETQCNVEKSGLRWIRFSTITTWSLFPITWFSYTSGLISFTVAEAGFSMIDIGAKVFLTLVLVNSTVEQAQNQKVDAITAIAEELENQINNCDAILQKMMPEGVLEQLKNGQATEAKEYESVTVFFSDITNFTVISSRTSTKDMMATLNKLWLEYDAIAKRWGVYKVETIGDAYLGVTGAPDVVPDHAERACNFAVDIIEMIKSFKTITGESINIRIGLNSGPVTAGVLGDLNPHWCLVGDTVNTASRMESTSKAGHIHISESTYHFIKSKFVTQPLDVMEVKGKGKMQTYWVLGRK
Km [4]: 0.92 ± 0.27 mM
kcat [4]: 1.07 s⁻¹
kcat/Km [4]: 1200 M⁻¹ s⁻¹
